The source of these data is patent US20210292422A1 (published 2021).

T1: LRP6E1E2 (UniProt O75581 20-630)
T1 chain: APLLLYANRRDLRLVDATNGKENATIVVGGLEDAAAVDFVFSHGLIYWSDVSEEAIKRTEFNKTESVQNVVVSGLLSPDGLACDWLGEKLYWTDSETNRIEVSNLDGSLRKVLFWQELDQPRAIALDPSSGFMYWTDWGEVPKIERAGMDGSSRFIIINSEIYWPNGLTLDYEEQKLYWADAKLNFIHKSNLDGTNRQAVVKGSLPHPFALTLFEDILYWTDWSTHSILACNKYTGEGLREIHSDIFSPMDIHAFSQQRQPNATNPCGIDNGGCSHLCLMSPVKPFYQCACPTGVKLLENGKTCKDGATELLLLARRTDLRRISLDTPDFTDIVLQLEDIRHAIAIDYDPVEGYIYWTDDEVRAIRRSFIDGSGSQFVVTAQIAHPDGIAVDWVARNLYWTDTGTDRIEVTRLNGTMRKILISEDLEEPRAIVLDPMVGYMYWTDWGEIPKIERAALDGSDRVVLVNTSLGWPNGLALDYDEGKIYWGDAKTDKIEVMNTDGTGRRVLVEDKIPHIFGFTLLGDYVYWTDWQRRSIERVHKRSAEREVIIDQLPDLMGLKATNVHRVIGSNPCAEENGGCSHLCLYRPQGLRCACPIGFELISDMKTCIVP

B1: αGFP:5:L1:Fc (bispecific antibody)
chain: QVQLVESGGGLVQPGGSLRLSCAASGFTFSRYGMHWVRQAPGKGLEWVSGISSIGSNTYYADSVKGRFTISRDNSKNTLYLQMNSLRAEDTAVYYCARWYKTYIDVWGQGTLVTVSSGGGGSGGGGSGGGGSDIELTQPPSVSVAPGQTARISCSGDNLGKKYVYWYQQKPGQAPVLVIYGDDERPSGIPERFSGSNSGNTATLTISGTQAEDEADYYCASYDSSHILIVFGGGTKLTVLGSGSGDVKLVESGGGLVKLGGSLRLSCAASGFSFSTSYMSWVRQTPEKRLELVAAINLNGGSTYYSDTVKGRFTISRDNAKNTLYLQMSSLKSEDTAFYYCASELAGYGTPFAYWGQGTLVTVSAGSAASGSSGGSSSGADIVLTQSPATLSVTPGDSVSLSCKASQSISYNLHWYQQKSHESPRLLIKYTSQSISGIPSRFSGSGSGTDFTLTINNVETEDFGMYFCQQSNSWPLTFGAGTKLEVKGSGSGDKTHTCPPCPAPEAAGGPSVFLFPPKPKDTLMISRTPEVTCVVVDVSHEDPEVKFNWYVDGVEVHNAKTKPREEQYNSTYRVVSVLTVLHQDWLNGKEYKCKVSNKALGAPIEKTISKAKGQPREPQVYTLPPSREEMTKNQVSLTCLVKGFYPSDIAVEWESNGQPENNYKTTPPVLDSDGSFFLYSKLTVDKSRWQQGNVFSCSVMHEALHNHYTQKSLSLSPGK
B2: F1:15:L1:Fc (bispecific antibody)
chain: EVQLVESGGGLVQPGGSLRLSCAASGFTFSHYTLSWVRQAPGKGLEWVSVISGDGSYTYYADSVKGRFTISSDNSKNTLYLQMNSLRAEDTAVYYCARNFIKYVFANWGQGTLVTVSSGGGGSGGGGSGGGGSDIELTQPPSVSVAPGQTARISCSGDNIGSFYVHWYQQKPGQAPVLVIYDKSNRPSGIPERFSGSNSGNTATLTISGTQAEDEADYYCQSYANTLSLVFGGGTKLTVLGSGSGGSGSGGSSGGDVKLVESGGGLVKLGGSLRLSCAASGFSFSTSYMSWVRQTPEKRLELVAAINLNGGSTYYSDTVKGRFTISRDNAKNTLYLQMSSLKSEDTAFYYCASELAGYGTPFAYWGQGTLVTVSAGSAASGSSGGSSSGADIVLTQSPATLSVTPGDSVSLSCKASQSISYNLHWYQQKSHESPRLLIKYTSQSISGIPSRFSGSGSGTDFTLTINNVETEDFGMYFCQQSNSWPLTFGAGTKLEVKGSGSGDKTHTCPPCPAPEAAGGPSVFLFPPKPKDTLMISRTPEVTCVVVDVSHEDPEVKFNWYVDGVEVHNAKTKPREEQYNSTYRVVSVLTVLHQDWLNGKEYKCKVSNKALGAPIEKTISKAKGQPREPQVYTLPPSREEMTKNQVSLTCLVKGFYPSDIAVEWESNGQPENNYKTTPPVLDSDGSFFLYSKLTVDKSRWQQGNVFSCSVMHEALHNHYTQKSLSLSPGK
B3: L1:5:F1:Fc (bispecific antibody)
chain: DVKLVESGGGLVKLGGSLRLSCAASGFSFSTSYMSWVRQTPEKRLELVAAINLNGGSTYYSDTVKGRFTISRDNAKNTLYLQMSSLKSEDTAFYYCASELAGYGTPFAYWGQGTLVTVSAGSAASGSSGGSSSGADIVLTQSPATLSVTPGDSVSLSCKASQSISYNLHWYQQKSHESPRLLIKYTSQSISGIPSRFSGSGSGTDFTLTINNVETEDFGMYFCQQSNSWPLTFGAGTKLEVKGSGSGEVQLVESGGGLVQPGGSLRLSCAASGFTFSHYTLSWVRQAPGKGLEWVSVISGDGSYTYYADSVKGRFTISSDNSKNTLYLQMNSLRAEDTAVYYCARNFIKYVFANWGQGTLVTVSSGGGGSGGGGSGGGGSDIELTQPPSVSVAPGQTARISCSGDNIGSFYVHWYQQKPGQAPVLVIYDKSNRPSGIPERFSGSNSGNTATLTISGTQAEDEADYYCQSYANTLSLVFGGGTKLTVLGSGSGDKTHTCPPCPAPEAAGGPSVFLFPPKPKDTLMISRTPEVTCVVVDVSHEDPEVKFNWYVDGVEVHNAKTKPREEQYNSTYRVVSVLTVLHQDWLNGKEYKCKVSNKALGAPIEKTISKAKGQPREPQVYTLPPSREEMTKNQVSLTCLVKGFYPSDIAVEWESNGQPENNYKTTPPVLDSDGSFFLYSKLTVDKSRWQQGNVFSCSVMHEALHNHYTQKSLSLSPGK
B4: F1:10:L1:Fc (bispecific antibody)
chain: EVQLVESGGGLVQPGGSLRLSCAASGFTFSHYTLSWVRQAPGKGLEWVSVISGDGSYTYYADSVKGRFTISSDNSKNTLYLQMNSLRAEDTAVYYCARNFIKYVFANWGQGTLVTVSSGGGGSGGGGSGGGGSDIELTQPPSVSVAPGQTARISCSGDNIGSFYVHWYQQKPGQAPVLVIYDKSNRPSGIPERFSGSNSGNTATLTISGTQAEDEADYYCQSYANTLSLVFGGGTKLTVLGSGSGGSGSGDVKLVESGGGLVKLGGSLRLSCAASGFSFSTSYMSWVRQTPEKRLELVAAINLNGGSTYYSDTVKGRFTISRDNAKNTLYLQMSSLKSEDTAFYYCASELAGYGTPFAYWGQGTLVTVSAGSAASGSSGGSSSGADIVLTQSPATLSVTPGDSVSLSCKASQSISYNLHWYQQKSHESPRLLIKYTSQSISGIPSRFSGSGSGTDFTLTINNVETEDFGMYFCQQSNSWPLTFGAGTKLEVKGSGSGDKTHTCPPCPAPEAAGGPSVFLFPPKPKDTLMISRTPEVTCVVVDVSHEDPEVKFNWYVDGVEVHNAKTKPREEQYNSTYRVVSVLTVLHQDWLNGKEYKCKVSNKALGAPIEKTISKAKGQPREPQVYTLPPSREEMTKNQVSLTCLVKGFYPSDIAVEWESNGQPENNYKTTPPVLDSDGSFFLYSKLTVDKSRWQQGNVFSCSVMHEALHNHYTQKSLSLSPGK
B5: L1:15:F1:Fc (bispecific antibody)
chain: DVKLVESGGGLVKLGGSLRLSCAASGFSFSTSYMSWVRQTPEKRLELVAAINLNGGSTYYSDTVKGRFTISRDNAKNTLYLQMSSLKSEDTAFYYCASELAGYGTPFAYWGQGTLVTVSAGSAASGSSGGSSSGADIVLTQSPATLSVTPGDSVSLSCKASQSISYNLHWYQQKSHESPRLLIKYTSQSISGIPSRFSGSGSGTDFTLTINNVETEDFGMYFCQQSNSWPLTFGAGTKLEVKGSGSGGSGSGGSSGGEVQLVESGGGLVQPGGSLRLSCAASGFTFSHYTLSWVRQAPGKGLEWVSVISGDGSYTYYADSVKGRFTISSDNSKNTLYLQMNSLRAEDTAVYYCARNFIKYVFANWGQGTLVTVSSGGGGSGGGGSGGGGSDIELTQPPSVSVAPGQTARISCSGDNIGSFYVHWYQQKPGQAPVLVIYDKSNRPSGIPERFSGSNSGNTATLTISGTQAEDEADYYCQSYANTLSLVFGGGTKLTVLGSGSGDKTHTCPPCPAPEAAGGPSVFLFPPKPKDTLMISRTPEVTCVVVDVSHEDPEVKFNWYVDGVEVHNAKTKPREEQYNSTYRVVSVLTVLHQDWLNGKEYKCKVSNKALGAPIEKTISKAKGQPREPQVYTLPPSREEMTKNQVSLTCLVKGFYPSDIAVEWESNGQPENNYKTTPPVLDSDGSFFLYSKLTVDKSRWQQGNVFSCSVMHEALHNHYTQKSLSLSPGK
B6: F1:5:L1:Fc (bispecific antibody)
chain: EVQLVESGGGLVQPGGSLRLSCAASGFTFSHYTLSWVRQAPGKGLEWVSVISGDGSYTYYADSVKGRFTISSDNSKNTLYLQMNSLRAEDTAVYYCARNFIKYVFANWGQGTLVTVSSGGGGSGGGGSGGGGSDIELTQPPSVSVAPGQTARISCSGDNIGSFYVHWYQQKPGQAPVLVIYDKSNRPSGIPERFSGSNSGNTATLTISGTQAEDEADYYCQSYANTLSLVFGGGTKLTVLGSGSGDVKLVESGGGLVKLGGSLRLSCAASGFSFSTSYMSWVRQTPEKRLELVAAINLNGGSTYYSDTVKGRFTISRDNAKNTLYLQMSSLKSEDTAFYYCASELAGYGTPFAYWGQGTLVTVSAGSAASGSSGGSSSGADIVLTQSPATLSVTPGDSVSLSCKASQSISYNLHWYQQKSHESPRLLIKYTSQSISGIPSRFSGSGSGTDFTLTINNVETEDFGMYFCQQSNSWPLTFGAGTKLEVKGSGSGDKTHTCPPCPAPEAAGGPSVFLFPPKPKDTLMISRTPEVTCVVVDVSHEDPEVKFNWYVDGVEVHNAKTKPREEQYNSTYRVVSVLTVLHQDWLNGKEYKCKVSNKALGAPIEKTISKAKGQPREPQVYTLPPSREEMTKNQVSLTCLVKGFYPSDIAVEWESNGQPENNYKTTPPVLDSDGSFFLYSKLTVDKSRWQQGNVFSCSVMHEALHNHYTQKSLSLSPGK
B7: L1:10:F1:Fc (bispecific antibody)
chain: DVKLVESGGGLVKLGGSLRLSCAASGFSFSTSYMSWVRQTPEKRLELVAAINLNGGSTYYSDTVKGRFTISRDNAKNTLYLQMSSLKSEDTAFYYCASELAGYGTPFAYWGQGTLVTVSAGSAASGSSGGSSSGADIVLTQSPATLSVTPGDSVSLSCKASQSISYNLHWYQQKSHESPRLLIKYTSQSISGIPSRFSGSGSGTDFTLTINNVETEDFGMYFCQQSNSWPLTFGAGTKLEVKGSGSGGSGSGEVQLVESGGGLVQPGGSLRLSCAASGFTFSHYTLSWVRQAPGKGLEWVSVISGDGSYTYYADSVKGRFTISSDNSKNTLYLQMNSLRAEDTAVYYCARNFIKYVFANWGQGTLVTVSSGGGGSGGGGSGGGGSDIELTQPPSVSVAPGQTARISCSGDNIGSFYVHWYQQKPGQAPVLVIYDKSNRPSGIPERFSGSNSGNTATLTISGTQAEDEADYYCQSYANTLSLVFGGGTKLTVLGSGSGDKTHTCPPCPAPEAAGGPSVFLFPPKPKDTLMISRTPEVTCVVVDVSHEDPEVKFNWYVDGVEVHNAKTKPREEQYNSTYRVVSVLTVLHQDWLNGKEYKCKVSNKALGAPIEKTISKAKGQPREPQVYTLPPSREEMTKNQVSLTCLVKGFYPSDIAVEWESNGQPENNYKTTPPVLDSDGSFFLYSKLTVDKSRWQQGNVFSCSVMHEALHNHYTQKSLSLSPGK

The target in one experiment is T1, LRP6E1E2. Briefly: BLI (Octet).
B1 gave a Kd of 98 nM.

The next experiment has as its target Frizzled 1 (Fzd1) (UniProt Q9UP38 111-230). Briefly: BLI (Octet). (In general: In BLI a coated tip is dipped into the sample, and binding shifts an interference pattern.)
The molecule B2 returned a Kd of 0.4 nM.
B3 displayed a Kd of 0.6 nM.
B4 had a Kd of 0.4 nM.
Same read-out and setting: as for B5, the figure is 0.8 nM.
B6 showed a Kd of 0.3 nM.
Still for that read-out and setting: with B7 the figure was 0.7 nM.

The next experiment concerns the target T1, LRP6E1E2. Briefly: BLI (Octet). The source holds these as a separate data set.
For B2, the Kd was determined as 5.5 nM.
As to B3, binding was characterised by a dissociation constant (Kd) of 4.9 nM.
Same read-out and setting: as for B4, the figure is 5.4 nM.
Same read-out and setting: with B5 the figure was 5.6 nM; with B6, 5.1 nM; with B7, 5.9 nM.

A word on the Kd: it is a measure of binding affinity in units of concentration.
